Results on 3 molecules are retold here after patent publication US5208158A, “Oxidation stable detergent enzymes” (Novo Nordisk A/S, priority 1990, dated 1993).

Substitutions are numbered along the chain they refer to. Names may count otherwise.

By Km is commonly meant the concentration of substrate that gives half-maximal velocity. What is called kcat is the maximal rate divided by the concentration of active sites.

Format in all cases: biochemical
Data set [1] addresses T1, Subtilisin-309 variant Subtilisin-309-M222C (Lederbergia lenta, UniProt P29600, M216C).
T1 construct: made in house
T1 sequence (P29600 1-269 M216C): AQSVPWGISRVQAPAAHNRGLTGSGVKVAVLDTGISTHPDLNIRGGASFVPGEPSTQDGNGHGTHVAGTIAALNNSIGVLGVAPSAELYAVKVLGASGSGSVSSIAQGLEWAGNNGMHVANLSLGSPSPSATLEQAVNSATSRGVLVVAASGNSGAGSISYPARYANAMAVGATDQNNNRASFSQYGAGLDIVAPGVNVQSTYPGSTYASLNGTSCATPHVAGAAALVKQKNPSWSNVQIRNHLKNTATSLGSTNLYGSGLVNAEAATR
The data set can be described thus: Titration of the enzyme with phenyl-Hg-Cl. Particulars: ratio phenyl-Hg-Cl/enzyme exceeds 1. The source says: (§1) As a further control, the enzyme was titrated with phenyl-Hg-Cl. When subtilisin-309-M222C is modified with phenyl-Hg-Cl, the activity decreases. When the ratio phenyl-Hg-Cl/WT exceeds 1, the activity constantly remains 10% of the activity of the non-modified enzyme, corresponding to 1 group per enzyme being modified.

Data set [2] has as its target T2, Subtilisin-309 variant Subtilisin-309-M222C-SM (M222C chemically modified with MMTS) (Lederbergia lenta, UniProt P29600, M216C).
T2 construct: made in house
T2 sequence (P29600 1-269 M216C): T1 sequence (P29600 1-269 M216C)
The data set can be described thus: Titration of the enzyme with phenyl-Hg-Cl. Particulars: excess of phenyl-Hg-Cl relative to enzyme of 2.5.
From the text: as §1

Substrate in data set [3]: C[C@H](NC(=O)CCC(=O)O)C(=O)N[C@@H](C)C(=O)N1CCC[C@H]1C(=O)N[C@@H](Cc1ccccc1)C(=O)Nc1ccc([N+](=O)[O-])cc1
The data set is described as follows: Kinetic characterization, cleavage of Suc-Ala-Ala-Pro-Phe-pNA monitored at 410 nm. Particulars: other: 50 mM Bicine, 2 mM CaCl2, 0.1 M KCl, pH 8.5, 25° C., substrate 0.2 to 6.5 mM. Here is the method:
The proteolytic activity can be monitored spectrophotometrically at 25° C., following the degradation of the peptide substrates Suc-Ala-Ala-Pro-Phe-pNA (Suc=Succinyl and pNA=p-nitro-anilid) or DMC (dimethyl-casein), and subsequent calculation of the kinetic parameters kcat. and KM.
For kinetic characterization, the savinase enzymes were assayed in:
50 μl X mM Suc-Ala-Ala-Pro-Phe-pNA in DMF
wherein the cleavage of substrate between Phe and pNA (p-nitro-anilid) is monitored spectrophotometrically at 410 nm, Δε=8500M^-1 cm^-1. The enzymatic concentrations are determined from the absorption at 280 nm, using Δε28 determined from the amino acid composition, Δε280 =23217M^-1 cm^-1.
The kinetic parameters kcat and KM are determined from a direct fit of the initial velocities at 7 concentrations of substrate to the Michaelis Menten equation. The […], X, is varied from 4 to 131 mM, so that the concentration of the substrate in assay varies from 0.2 to 6.5 mM. Thus selected around the KM value of the enzymes.

As for `[Cl][Hg][c]1ccccc1` [phenyl-Hg-Cl], in data set [1], the “activity remaining, of the activity of the non-modified enzyme” value was found to be 10%. Besides, the “activity change on reaction with phenyl-Hg-Cl” value in data set [2] is on record as “no activity change is observed”.

B1: Subtilisin-309 (wild type) (Lederbergia lenta) (protein)
chain: T1 sequence (P29600 1-269 M216C) with C216M
B1: in data set [3], the Km stood at 1760 µM, the kcat came out at 91.2 ± 1.0 s⁻¹ and the kcat/Km came out at 52 S^-1 mM^-1.

B2: Subtilisin-309 variant Subtilisin-309-M222C (Lederbergia lenta; M216C) (protein)
chain: T1 sequence (P29600 1-269 M216C)
notes: made in house
As to B2, in data set [3], the Km is 1820 µM, the kcat turned out to be 43.2 ± 0.03 s⁻¹ and the kcat/Km amounted to 23.8 S^-1 mM^-1.
